{"source": "patent US20210163622A1", "about": "(FATE THERAPEUTICS, published 2021)", "target": "T1, human MICA on target cells (human, UniProt Q29983 24-383)", "T1 sequence (looked up)": "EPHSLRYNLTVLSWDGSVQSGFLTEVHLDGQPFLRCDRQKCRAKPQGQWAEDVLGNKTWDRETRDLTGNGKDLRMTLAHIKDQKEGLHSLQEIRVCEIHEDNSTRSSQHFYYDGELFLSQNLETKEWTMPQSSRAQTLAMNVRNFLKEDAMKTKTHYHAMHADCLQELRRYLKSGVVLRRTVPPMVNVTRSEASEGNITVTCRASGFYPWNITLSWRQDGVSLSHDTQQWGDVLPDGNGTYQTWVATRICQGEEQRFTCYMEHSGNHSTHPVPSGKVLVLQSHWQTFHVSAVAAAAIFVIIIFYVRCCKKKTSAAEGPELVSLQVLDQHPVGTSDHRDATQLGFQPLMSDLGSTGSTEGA", "assay": "cell-based or functional assay", "data": [{"binder": "MICA/B CAR (chimeric antigen receptor with a MICA/B-binding scFV; version not stated at the assay) (scFv, V domains shown) VH: QIQLVQSGPELKKPGETVKVSCKASGYMFTNYAMNWVKQAPEKGLKWMGWINTHTGDPTYADDFKGRIAFSLETSASTAYLQINNLKNEDTATYFCVRTYGNYAMDYWGQGTSVTVSS VL: DIQMTQTTSSLSASLGDRVTISCSASQDISNYLNWYQQKPDGTVKLLIYDTSILHLGVPSRFSGSGSGTDYSLTISNLEPEDIATYYCQQYSKFPRTFGGGTTLEIK", "values": [{"measurement": "cytotoxicity of MICA/B CAR+ T cells against MICA+ Nalm6 cells, % Caspase 3/7+ target cells over E:T ratio, 4 h (EC50)", "result": "~1.9"}, {"measurement": "cytotoxicity of MICA/B CAR+ iNK cells against P815 MICA+ cells, % Caspase 3/7+ target cells over E:T ratio, 4 h (EC50)", "result": "~5.2"}]}]}
